From PMC314469, “Protein Interaction Networks by Proteome Peptide Scanning” (PLoS Biology, 2004) come the findings set out here.

The target in experiment [1] is T1, amphyphisin SH3 (AMPH_HUMAN), P49418.
T1 chain: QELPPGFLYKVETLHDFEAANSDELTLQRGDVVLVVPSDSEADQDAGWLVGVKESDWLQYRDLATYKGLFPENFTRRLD
The experiment can be described thus: SPOT array.

Experiment [2] addresses endophilin SH3 (SH3G2_HUMAN), Q99962. The experiment can be described thus: SPOT array.

STAGPLRPPPPGAG [Q9Y6T1 410-424]: the normalised SPOT signal, Boehringer light units (BLU); mean over the file's lines of this peptide in experiment [1] amounted to 61.4; in experiment [2] it was 1850.

Consider SVSRPERPPESAAL [Q9Y256 12-26], for which the normalised SPOT signal, Boehringer light units (BLU); mean over the file's lines of this peptide in experiment [1] worked out at 85.5; in experiment [2], 102.

For SSTLPQKPPYSFID [Q9H0N0 213-227], the values for the normalised SPOT signal, Boehringer light units (BLU); mean over the file's lines of this peptide in experiment [1] and in experiment [2] were 56.1 and 27.3, respectively.

With SEEHPRRPDHGRRG [Q9NUN8 9-22], the normalised SPOT signal, Boehringer light units (BLU); mean over the file's lines of this peptide was 17.2 in experiment [1] and 55.3 in experiment [2].

Take SSRRPVRPGRRGLG [Q14160 1547-1560]: the normalised SPOT signal, Boehringer light units (BLU); mean over the file's lines of this peptide in experiment [1] is 7270; in experiment [2] it was 1850.

Consider SVNHIKRPHSVPSS [O75179 569-582], for which the normalised SPOT signal, Boehringer light units (BLU); mean over the file's lines of this peptide in experiment [1] was 16.7; in experiment [2] it was 133.

As to TAPLPIRPPSGTKK [Q9UBS0 458-472], the figures for the normalised SPOT signal, Boehringer light units (BLU); mean over the file's lines of this peptide in experiment [1] and in experiment [2] were 468 and 1100, respectively.

As for SDGNPRRPSPVLRH [P51172 134-147], the normalised SPOT signal, Boehringer light units (BLU); mean over the file's lines of this peptide in experiment [1] came to 60.5; in experiment [2], 577.

For SSYTFKRPVTRITP [Q8WWY6 31-44], the normalised SPOT signal, Boehringer light units (BLU); mean over the file's lines of this peptide in experiment [1] worked out at 18.6; in experiment [2], 89.6.

With SSRDLSRPPKKGEL [O94930 369-382], the normalised SPOT signal, Boehringer light units (BLU); mean over the file's lines of this peptide in experiment [1] was 119; in experiment [2], 109.

For the molecule SWPLLERPWKAFLN [Q9H6E9 501-514], the normalised SPOT signal, Boehringer light units (BLU); mean over the file's lines of this peptide in experiment [1] worked out at 12.2; in experiment [2], 179.

With SSTNPFRPQKVSSF [P30670 54-67], the normalised SPOT signal, Boehringer light units (BLU); mean over the file's lines of this peptide turned out to be 77.5 in experiment [1] and 1350 in experiment [2].

Regarding SSPGPKRPGNTLRK [O75962 1703-1716], the normalised SPOT signal, Boehringer light units (BLU); mean over the file's lines of this peptide in experiment [1] was found to be 51.9; in experiment [2], 619.

For the molecule SVIKPPRPDRGWFV [Q9BY07 808-821], the results for the normalised SPOT signal, Boehringer light units (BLU); mean over the file's lines of this peptide in experiment [1] and in experiment [2] were 1520 and 4940, respectively.

For the molecule TAVPPKRPYGTQRT [Q9H6A9 359-372], the normalised SPOT signal, Boehringer light units (BLU); mean over the file's lines of this peptide in experiment [1] stood at 37.8; in experiment [2], 398.

Take SYRRLDRPTRIRFS [Q9H2X0 201-214]: the normalised SPOT signal, Boehringer light units (BLU); mean over the file's lines of this peptide in experiment [1] stood at 780; in experiment [2], 2240.

Take STQSLKRPGTSQAG [O94820 555-568]: the figures for the normalised SPOT signal, Boehringer light units (BLU); mean over the file's lines of this peptide in experiment [1] and in experiment [2] were 42 and 5.6, respectively.

Regarding SYTRIKRPQDQLRF [P55055 405-418], the results for the normalised SPOT signal, Boehringer light units (BLU); mean over the file's lines of this peptide in experiment [1] and in experiment [2] were 38.5 and 128, respectively.

Turning to AAVPPPRPPIPEER [Q16099 865-879], the results for the normalised SPOT signal, Boehringer light units (BLU); mean over the file's lines of this peptide in experiment [1] and in experiment [2] were 419 and 4290, respectively.

SVSGPKRPQDRVAV [P48200 444-457]: the normalised SPOT signal, Boehringer light units (BLU); mean over the file's lines of this peptide amounted to 38.9 in experiment [1] and 67.2 in experiment [2].

With SSPLLKRPVRTQAV [Q9Y5M0 381-394], the figures for the normalised SPOT signal, Boehringer light units (BLU); mean over the file's lines of this peptide in experiment [1] and in experiment [2] were 1640 and 195, respectively.

With TAKKIKRPKFTVPQ [Q9UDN0 30-43], the normalised SPOT signal, Boehringer light units (BLU); mean over the file's lines of this peptide came to 42.6 in experiment [1] and 15.1 in experiment [2].

For SVTDIRRPRLYLLQ [Q9NYY3 591-604], the normalised SPOT signal, Boehringer light units (BLU); mean over the file's lines of this peptide came out at 35.9 in experiment [1] and 96.5 in experiment [2].

For SSVRPPRPKKEPQT [Q9H875 7-20], the normalised SPOT signal, Boehringer light units (BLU); mean over the file's lines of this peptide stood at 2350 in experiment [1] and 1060 in experiment [2].

Turning to SSVALKRPPPAPPV [P78325 741-754], the normalised SPOT signal, Boehringer light units (BLU); mean over the file's lines of this peptide was 24.3 in experiment [1] and 21.2 in experiment [2].

With SDTSPRRPLRPTPN [Q16456 13-26], the values for the normalised SPOT signal, Boehringer light units (BLU); mean over the file's lines of this peptide in experiment [1] and in experiment [2] were 3520 and 1300, respectively.

As for SVSFIGRPWRVVDG [Q12789 1979-1992], the normalised SPOT signal, Boehringer light units (BLU); mean over the file's lines of this peptide in experiment [1] amounted to 112; in experiment [2], 78.1.

SDKAFSRPDKLRLH [Q9NQV6 563-576]: the normalised SPOT signal, Boehringer light units (BLU); mean over the file's lines of this peptide in experiment [1] turned out to be 117; in experiment [2], 54.6.

With STSFPRRPLAVEGG [O00124 234-247], the normalised SPOT signal, Boehringer light units (BLU); mean over the file's lines of this peptide in experiment [1] was determined as 53; in experiment [2] it was 132.

Take TAGPPKRPGRPPKN [P55201 901-914]: the normalised SPOT signal, Boehringer light units (BLU); mean over the file's lines of this peptide came out at 5130 in experiment [1] and 93.8 in experiment [2].

As for SVEPPKRPTSRLIM [Q9UMX9 24-37], the normalised SPOT signal, Boehringer light units (BLU); mean over the file's lines of this peptide in experiment [1] is 36; in experiment [2], 480.

Consider SSSAPRRPSSLQSL [P39880 1446-1459], for which the values for the normalised SPOT signal, Boehringer light units (BLU); mean over the file's lines of this peptide in experiment [1] and in experiment [2] were 37.2 and 1050, respectively.

SVIKPTRPDRGWFV [Q9HBU5 808-821]: the normalised SPOT signal, Boehringer light units (BLU); mean over the file's lines of this peptide in experiment [1] was 4960; in experiment [2], 3200.

On to SVIPPDRPPGASAG [O43147 533-547], for which the normalised SPOT signal, Boehringer light units (BLU); mean over the file's lines of this peptide in experiment [1] was 53.4; in experiment [2], 72.8.

In the case of SWERPRRPNGDIVG [P16144 1660-1673], the normalised SPOT signal, Boehringer light units (BLU); mean over the file's lines of this peptide in experiment [1] is 3700; in experiment [2] it was 2770.

In the case of SWQILARPWRAFFK [Q9H6E1 737-750], the normalised SPOT signal, Boehringer light units (BLU); mean over the file's lines of this peptide in experiment [1] is 1030; in experiment [2] it was 73.5.

As for SVVGIRRPFQIPPG [Q9NPJ5 421-434], the normalised SPOT signal, Boehringer light units (BLU); mean over the file's lines of this peptide in experiment [1] is 33.8; in experiment [2] it was 127.

With TASPPARPPAQVGL [Q9NT59 32-46], the normalised SPOT signal, Boehringer light units (BLU); mean over the file's lines of this peptide is 34.4 in experiment [1] and 365 in experiment [2].
